Laboratory results from article PMC3777911 (PLoS ONE, 2013).

Assays:
[1] = target: T1, His-Sec31A (human, UniProt O94979 1-1220); assay: co-purification (Ni-NTA affinity chromatography); the two chains co-expressed in ES-SF9 cells; complex purified on Ni-NTA through the His tag of Sec31A or Sec24; purified Sec13/Sec31A collected again on Ni beads, SyproRed; conditions: partners not purified
T1 construct: human Sec31A; also called wt Sec31A; source: co-expressed with HA-Sec13 in ES-SF9 cells (Bac-to-Bac baculovirus)
T1 sequence (looked up): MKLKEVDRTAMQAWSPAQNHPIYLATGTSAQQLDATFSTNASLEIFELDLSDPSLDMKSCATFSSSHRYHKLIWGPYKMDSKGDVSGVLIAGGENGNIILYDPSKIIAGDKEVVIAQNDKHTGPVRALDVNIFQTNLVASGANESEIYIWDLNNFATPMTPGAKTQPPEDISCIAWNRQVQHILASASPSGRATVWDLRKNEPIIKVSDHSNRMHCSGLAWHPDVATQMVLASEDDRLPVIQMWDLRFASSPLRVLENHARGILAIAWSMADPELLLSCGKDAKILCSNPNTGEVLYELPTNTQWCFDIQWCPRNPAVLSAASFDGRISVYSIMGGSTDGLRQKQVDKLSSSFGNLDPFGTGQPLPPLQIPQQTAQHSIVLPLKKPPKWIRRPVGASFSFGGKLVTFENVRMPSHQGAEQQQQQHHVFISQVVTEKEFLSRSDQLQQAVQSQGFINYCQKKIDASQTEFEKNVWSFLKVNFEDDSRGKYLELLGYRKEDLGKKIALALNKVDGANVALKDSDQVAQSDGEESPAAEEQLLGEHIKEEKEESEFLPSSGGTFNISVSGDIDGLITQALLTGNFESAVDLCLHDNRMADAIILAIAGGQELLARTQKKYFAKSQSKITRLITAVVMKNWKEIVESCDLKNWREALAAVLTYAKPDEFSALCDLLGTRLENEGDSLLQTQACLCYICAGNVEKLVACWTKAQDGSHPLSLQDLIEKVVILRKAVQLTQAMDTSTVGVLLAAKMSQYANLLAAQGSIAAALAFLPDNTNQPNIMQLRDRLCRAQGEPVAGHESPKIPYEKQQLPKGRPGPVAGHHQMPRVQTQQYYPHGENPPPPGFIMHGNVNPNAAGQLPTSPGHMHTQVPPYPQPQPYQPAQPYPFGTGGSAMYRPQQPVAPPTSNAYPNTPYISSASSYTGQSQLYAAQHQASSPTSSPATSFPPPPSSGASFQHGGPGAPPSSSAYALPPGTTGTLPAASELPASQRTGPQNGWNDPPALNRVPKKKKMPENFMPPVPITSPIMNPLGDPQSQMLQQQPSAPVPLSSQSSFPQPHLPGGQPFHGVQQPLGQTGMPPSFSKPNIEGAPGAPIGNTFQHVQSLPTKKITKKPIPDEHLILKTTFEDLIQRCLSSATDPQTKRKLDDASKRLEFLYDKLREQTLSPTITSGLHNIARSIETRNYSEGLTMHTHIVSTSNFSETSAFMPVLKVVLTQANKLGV

[2] = target: T2, HA-Sec13/His-Sec31A complex (outer COPII coat), wild type ( | human, UniProt P55735 1-322; O94979 1-1220); assay: pull-down; His-tagged Sec31A (Sec13/Sec31A) immobilised on Nickel beads, recombinant ALG-2 versions added, in the presence of Ca2+; eluates on SDS-PAGE, SyproRed; ratios from fluorescence intensity; conditions: both partners purified
T2 construct: Sec13, mammalian COPII outer coat protein; human Sec31A; also called Sec13/31A; Sec13/Sec31A (wt); source: co-expressed in ES-SF9 cells (Bac-to-Bac baculovirus), purified (Ni-NTA)

Binder	stoichiometry N [1]	stoichiometry N [2]
HA-Sec13 (natural protein, UniProt P55735 1-322, looked up, Sec13, mammalian COPII outer coat protein; source: co-expressed with His-Sec31A or His-Sec31ADelABD in ES-SF9 cells (Bac-to-Bac baculovirus)) MVSVINTVDTSHEDMIHDAQMDYYGTRLATCSSDRSVKIFDVRNGGQILIADLRGHEGPVWQVAWAHPMYGNILASCSYDRKVIIWREENGTWEKSHEHAGHDSSVNSVCWAPHDYGLILACGSSDGAISLLTYTGEGQWEVKKINNAHTIGCNAVSWAPAVVPGSLIDHPSGQKPNYIKRFASGGCDNLIKLWKEEEDGQWKEEQKLEAHSDWVRDVAWAPSIGLPTSTIASCSQDGRVFIWTCDDASSNTWSPKLLHKFNDVVWHVSWSITANILAVSGGDNKVTLWKESVDGQWVCISDVNKGQGSVSASVTEGQQNEQ	~1 Sec13 per Sec31A (molar ratio)	
ALG-2 (product of the apoptosis linked gene-2), recombinant wild type (natural protein, UniProt P12815 1-191, looked up, also called wt ALG-2; rALG-2; source: recombinant, purified as previously described [16]) MAAYSYRPGPGGGPGPAAGAALPDQSFLWNVFQRVDKDRSGVISDNELQQALSNGTWTPFNPVTVRSIISMFDRENKAGVNFSEFTGVWKYITDWQNVFRTYDRDNSGMIDKNELKQALSGFGYRLSDQFHDILIRKFDRQGRGQIAFDDFIQGCIVLQRLTDIFRRYDTDQDGWIQVSYEQYLSMVFSIV		~2 ALG-2 per Sec31A (molar ratio)
